Legend:
[1] = molecular target: human GLP-1R-LgBiT-2MBP (glucagon-like peptide-1 receptor, construct for structure determination) (human) (UniProt P43220)
[2] = molecular target: human GLP-1R-LgBiT-2MBP (glucagon-like peptide-1 receptor, construct for structure determination) (human) (UniProt P43220); remark: listed apart in the source

Chain of UniProt P43220 (P43220 24-463): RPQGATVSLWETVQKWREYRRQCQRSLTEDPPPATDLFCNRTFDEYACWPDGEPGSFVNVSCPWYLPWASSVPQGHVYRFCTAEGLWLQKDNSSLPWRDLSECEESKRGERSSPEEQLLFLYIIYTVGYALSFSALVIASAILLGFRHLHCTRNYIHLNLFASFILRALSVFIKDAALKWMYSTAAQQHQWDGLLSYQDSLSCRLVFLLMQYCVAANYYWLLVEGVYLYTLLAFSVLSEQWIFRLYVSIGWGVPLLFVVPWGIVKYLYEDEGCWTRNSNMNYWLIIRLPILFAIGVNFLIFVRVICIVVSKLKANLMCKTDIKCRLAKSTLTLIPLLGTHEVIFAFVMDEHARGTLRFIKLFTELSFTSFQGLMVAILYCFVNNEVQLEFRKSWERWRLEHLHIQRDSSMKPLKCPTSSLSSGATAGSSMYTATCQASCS

## GLP-1(9-36)NH2 (peptide)
[1]
  EC50 of cAMP accumulation, WT GLP-1R, with 50 nM LSN3318839 (full agonist): 23 nM
[2]
  EC50 of cAMP accumulation, WT GLP-1R, with 5 μM LSN3318839: 0.41 nM
